Source: the supplement of paper PMC10126150
± gives the standard deviation of the averaged measurements.

Test system: ATP
Assay: switch fluorescence ratio, 500 uM ATP over buffer (Cy3 cluster intensity, sum of 5 cycles each) (fold (ratio)); higher = stronger signal-on switching upon ATP binding; sequences stand for … in TCGTCGGCAGCGTCAGATGTGTATAAGAGACAGTTTTTTTTTTTTTTTTTTTTTTTTT…TC
Conditions: aptamer strand: ATP DNA aptamer (quencher-CACCTGGGGGAGTATTGCGGAGGAAGG + anchor), 100 nM annealed; ATP concentration: 500 uM
Summary of the method: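 After annealing to 100 nM quencher-labelled ATP aptamer, Cy3-labelled switching-strand clusters on a modified Illumina MiSeq flow-cell were imaged in selection buffer. A second image followed after 15 min with 500 uM ATP at 22 °C, and five such buffer/ATP cycles were done, each separated by NaOH stripping and re-annealing. The fluorescence ratio, averaged per switch-domain sequence, is summed target-cycle over summed buffer-cycle Cy3 intensity per cluster, with clusters outside 100-1000 RFU excluded.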
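Note: ATP exposure 15 min at 22 °C before imaging.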

| Sequence | switch fluorescence ratio |
| --- | --- |
| AGTAGGGCGG | 1 ± 0.033 |
| AGTAGGGGAC | 0.994 ± 0.022 |
| AGTAGGGTGG | 0.991 ± 0.032 |
| AGTAGTAGGA | 1.01 ± 0.017 |
| AGTAGTTATT | 0.965 ± 0.011 |
| AGTATAGAAA | 0.978 ± 0.0065 |
| AGTATATAGT | 1.004 ± 0.0073 |
| AGTATATCTT | 0.98 ± 0.012 |
| AGTATATGGA | 1.01 ± 0.013 |
| AGTATCTTAC | 1.03 ± 0.025 |
| AGTATGAGTT | 0.9737 ± 0.0017 |
| AGTATGGGTA | 1 ± 0.018 |
| AGTATGGTGT | 0.937 ± 0.044 |
| AGTATGGTTG | 1 ± 0.02 |
| AGTATGTGGA | 0.9729 ± 0.0071 |
| AGTATTAGAG | 0.983 ± 0.039 |
| AGTATTCAGG | 1 ± 0.027 |
| AGTATTGGAG | 1.004 ± 0.0023 |
| AGTATTTAGG | 0.9808 ± 0.0043 |
| AGTATTTGAG | 0.975 ± 0.023 |
| AGTATTTGTG | 0.97 ± 0.035 |
| AGTATTTTTT | 0.995 ± 0.01 |

| Sequence | switch fluorescence ratio |
| --- | --- |
| AGTCAATTAG | 1.04 ± 0.012 |
| AGTCATCGGG | 0.9728 ± 0.0011 |
| AGTCCAGTTT | 0.986 ± 0.013 |
| AGTCCGGGAG | 1.02 ± 0.026 |
| AGTCCTGGAG | 0.993 ± 0.044 |
| AGTCGAAATG | 0.989 ± 0.028 |
| AGTCGAGCGT | 0.9976 ± 0.0034 |
| AGTCGGAACG | 0.963 ± 0.015 |
| AGTCGGGCGT | 1 ± 0.046 |
| AGTCGGTTCG | 0.986 ± 0.03 |
| AGTCGTACGG | 1.004 ± 0.0096 |
| AGTCGTTCTG | 0.99 ± 0.01 |
| AGTCTAACTC | 1.02 ± 0.019 |
| AGTCTAGGCG | 0.985 ± 0.011 |
| AGTCTCAGGC | 1 ± 0.032 |
| AGTCTTAAGG | 0.9459 ± 0.003 |
| AGTCTTGGGG | 0.977 ± 0.019 |
| AGTGAATCTG | 0.992 ± 0.085 |
| AGTGACGGTA | 1.04 ± 0.042 |
| AGTGAGATGA | 1 ± 0.04 |
| AGTGAGCAGC | 1.04 ± 0.039 |
| AGTGAGGCTC | 0.994 ± 0.011 |

| Sequence | switch fluorescence ratio |
| --- | --- |
| AGTGAGGGGT | 0.97 ± 0.03 |
| AGTGAGTCGG | 0.979 ± 0.018 |
| AGTGAGTGTA | 0.979 ± 0.015 |
| AGTGATATTT | 1.01 ± 0.042 |
| AGTGATCAGG | 1 ± 0.019 |
| AGTGATGCTT | 0.992 ± 0.036 |
| AGTGCAAGTG | 0.972 ± 0.011 |
| AGTGCCCGTA | 1.02 ± 0.063 |
| AGTGCCGGGA | 1.04 ± 0.034 |
| AGTGCCTGCG | 1.02 ± 0.032 |
| AGTGCGAGAG | 1.01 ± 0.029 |
| AGTGCGGGTG | 1.13 ± 0.028 |
| AGTGCGTGCG | 0.979 ± 0.059 |
| AGTGCGTTTG | 1 ± 0.038 |
| AGTGGAAGCA | 0.972 ± 0.031 |
| AGTGGAAGGG | 0.957 ± 0.027 |
| AGTGGATGGG | 0.9858 ± 0.0031 |
| AGTGGCTTTT | 1.002 ± 0.0081 |
| AGTGGGAACC | 0.998 ± 0.025 |
| AGTGGGAGTG | 0.983 ± 0.034 |
| AGTGGGGCGC | 1.29 ± 0.4 |
| AGTGGGGGAA | 0.985 ± 0.027 |

| Sequence | switch fluorescence ratio |
| --- | --- |
| AGTGGGGTAC | 1.03 ± 0.032 |
| AGTGGGTCGG | 0.9824 ± 0.0097 |
| AGTGGTGAGT | 0.977 ± 0.025 |
| AGTGGTGGGT | 1.01 ± 0.035 |
| AGTGGTGTTG | 0.9577 ± 0.0092 |
| AGTGGTTAGT | 1.05 ± 0.027 |
| AGTGGTTGTA | 0.997 ± 0.024 |
| AGTGTAAGTA | 0.996 ± 0.03 |
| AGTGTAGCTT | 1.07 ± 0.19 |
| AGTGTAGGGA | 1.01 ± 0.029 |
| AGTGTAGTCT | 0.961 ± 0.02 |
| AGTGTCCAGT | 1 ± 0.028 |
| AGTGTCGCCT | 0.985 ± 0.019 |
| AGTGTGATAG | 0.995 ± 0.034 |
| AGTGTGGAAT | 0.954 ± 0.011 |
| AGTGTGGGGA | 1.03 ± 0.028 |
| AGTGTGGGGT | 0.979 ± 0.054 |
| AGTGTGGTGG | 0.98944 ± 7.4e-05 |
| AGTGTGTGAA | 0.962 ± 0.01 |
